This sample holds only a part of the variants without activity.
B1: TPR 5TU (parent)
chain: GGAUCUUCUCGAUCUAACAAAAAAGACAAAUCUGCCACAAAGCUUGAGAGCAUCUUCGGAUGCAGAGGCGGCAGCCUUCGGUGGCGCGAUAGCGCCAACGUUCUCAACUAUGACACGCAAAACGCGUGCUCCGUUGAAUGGAGUUUAUCAUG

Variants of: B1
Assay: polymerase ribozyme fitness, log enrichment relative to wild type (log ratio); higher = more active; in vitro selection for triplet polymerase activity
Summary of the method: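 Streptavidin-bead capture of gel-excised extended constructs, followed by RT-PCR, closed a single triplicate in vitro selection round. That round began by annealing PCR-built, transcribed mutant libraries of each subunit of a heterodimeric triplet polymerase ribozyme with a biotinylated primer, the partner subunit and triplets, then incubating them frozen at −7 °C. After Illumina sequencing of inputs and outputs, genotypes needed ≥10 input reads and ≥1 read per output. Fitness is the base-2 logarithm of genotype enrichment over wild-type enrichment, using inverse-variance-weighted replicate averages.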

Variant	polymerase ribozyme fitness (log ratio)
A16U A21G C32U G50C U151G	≤ -4.2
U15G U45C G71A G94U U134C A138U U145G	≤ -4.2
U15G A49G C87U G136A	-1.17
U15G C129A	-2.55
U15C A37U G46U G84U U148C	≤ -4.2
U15C C35U U56A A89C	0.662
A16G U33G C95G	≤ -4.2
U15G G74A C96U C125A G141U	≤ -4.2
A16C A21U C69U G71A	-1.79
U15G A24C G59C G68C C79G G81U C95A C132U	≤ -4.2
U15C C27U U53A A122G	-1.39
A16C A24U G46C C105G C108G	≤ -4.2
A16C A20G C27U A60G G117A	-3.38
A16U A20C G83C C96A A107G	≤ -4.2
U15G C95U U104G U144A	-0.599
A16C C51U C87G C118G G133U	≤ -4.2
U15C A91U	≤ -4.2
U15C G74C G94C	-4.1
A16G A52C U53A G92C U109G A137C U139G	≤ -4.2
A16G C36G	-4.12
A16U A20C A41U C87G A98G	≤ -4.2

Variant	polymerase ribozyme fitness (log ratio)
A16C C35U G80A G94A C118U	-3.33
A16G G34U A52U A60G C72G G88U A91U G140C	≤ -4.2
U15G A41U A73G	-1.57
U15C C87U A142U	-0.702
U15G A23G G50C C51G C63G C96G	≤ -4.2
A16G C27G G70C C87U A119U G133C G143A	≤ -4.2
U15G A39U C43U G50C G94A	≤ -4.2
A16C C96A U109C U148A	≤ -4.2
A16C C87U	-1.85
U15G A17G C27G A39G	≤ -4.2
U15C A28G U146C	≤ -4.2
A16G C35A	-3.53
A16U A19U C32G A60U A91U C99U A138C	≤ -4.2
A16C G83C U146G U148C C149A	≤ -4.2
A16G C27A G58C C85A C96G C116U G143C U148A	≤ -4.2
U15G A73C G84U C96A C103G A110G A137C	≤ -4.2
A16C C57A G94A C116U G124A A142U	-3.92
U15G U53A A91G	-2.83
A16C C38U G50A C95G C116G	-4.14
A16G C32A C38G U56A A60C C87A C123U A150C	≤ -4.2
U15C A21U	1.65

Variant	polymerase ribozyme fitness (log ratio)
A16G A40C A119C U127C	-3.55
U15G C27A	-4.13
A16C A41C C57G G59C U135A	-3.85
A16G A23U A29G A37U C43U C79G C99A A122G	≤ -4.2
U15G A24U G25C C38G C54G C76G G81C C93A C132U	≤ -4.2
A16C C85U	-1.75
A16C C85G	-4.13
U15C U53A A73G C76U G92C	-1.85
A16G C18A A26G C38U G42C G81A C87A C116A	≤ -4.2
U15G U53A A60C G83A C85U	-3.78
A16G G128U	-3.4
A16U A22C A30U U55A C57A C76G G81U G84C	≤ -4.2
U15G A17U	-0.367
A16G A26C C32U A47C U53A A91G C96G	≤ -4.2
U15C A21G A24U U53A	0.983
A16G A52G C57U A73C C85U C96G	≤ -4.2
A16C C99G C125A	-2.16
A16C C54G U77G C85U U135C	≤ -4.2
A16C A24G A47C C85G A97C A120G	≤ -4.2
A16C C27G U53A C54A G74A G94A	≤ -4.2
A16G A22U A91U C93U U102G G128U	≤ -4.2

Variant	polymerase ribozyme fitness (log ratio)
U15G A47C	-0.922
U15C A24C C93U G128U G140A U144C	≤ -4.2
A16C A19U	-1.03
A16U A17G C85G	-4.18
A16G U31C C51U U53G C125A G140C	≤ -4.2
A16G G86U	-2.72
U15G G59A G83U C118G	-1.13
U15C A22C C51U G81U C85U G94A A122G	-1.17
A16G A26U C35A C51G U61A C87G A120U C129G	≤ -4.2
U15G U44G A73C G74U G80C C93U G141C	≤ -4.2
A16G A17C A21U A29G U55A C57G A91C C103U U145A	≤ -4.2
U15G C27G C76U C87G	≤ -4.2
A16G A97G U144G	-0.0952
A16U A19C C57U G71C U134G G141U	≤ -4.2
U15G A40C G42A A49G G62C C93A	≤ -4.2
U15G C35U A41C A115G U145G	-4.04
A16C A89G	-2.25
U15G C79G	-3.38
A16C A52G U55A G94U A107G	≤ -4.2
U15C G84A A106G G124A	-0.149
U15G G50A U53A A73U C87A A113C G140U	≤ -4.2

Source: the RNAGym collection of RNA variant scans (doi:10.1073/pnas.2313332121)
